{"source": "patent US20220332804A1", "about": "(CSL INNOVATION, published 2022)", "assay_in_all_cases": "SPR, antibody captured, C2 as analyte;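 note: biacore SPR at 37 °C, anti-C2 mAbs captured via goat anti-human IgG on CM5 chips, double-referenced sensorgrams fit to a 1:1 kinetic or steady-state model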", "key": {"[1]": {"biological_target": "T1, human C2 G466A (human, UniProt P06681 21-752)", "T1 sequence": "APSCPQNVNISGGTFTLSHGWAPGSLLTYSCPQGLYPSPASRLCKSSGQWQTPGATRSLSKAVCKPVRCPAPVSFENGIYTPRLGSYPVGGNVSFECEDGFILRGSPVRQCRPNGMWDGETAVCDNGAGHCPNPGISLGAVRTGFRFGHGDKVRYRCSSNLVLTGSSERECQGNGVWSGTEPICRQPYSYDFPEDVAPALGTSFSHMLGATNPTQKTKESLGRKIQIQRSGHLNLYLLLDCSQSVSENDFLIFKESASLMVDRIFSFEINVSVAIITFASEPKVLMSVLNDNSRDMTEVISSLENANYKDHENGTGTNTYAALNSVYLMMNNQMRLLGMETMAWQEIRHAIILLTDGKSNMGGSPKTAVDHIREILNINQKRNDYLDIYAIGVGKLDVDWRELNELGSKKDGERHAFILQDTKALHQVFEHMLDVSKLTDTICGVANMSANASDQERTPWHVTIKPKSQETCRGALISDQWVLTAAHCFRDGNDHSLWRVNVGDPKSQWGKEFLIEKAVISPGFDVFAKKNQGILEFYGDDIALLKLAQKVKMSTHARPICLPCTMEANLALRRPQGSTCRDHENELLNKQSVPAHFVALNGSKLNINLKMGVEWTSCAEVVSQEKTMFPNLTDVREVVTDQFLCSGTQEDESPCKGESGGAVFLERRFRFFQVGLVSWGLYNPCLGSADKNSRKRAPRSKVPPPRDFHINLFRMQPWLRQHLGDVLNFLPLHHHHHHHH"}, "[2]": {"biological_target": "T2, human C2 P704A (human, UniProt P06681 21-752)", "T2 sequence": "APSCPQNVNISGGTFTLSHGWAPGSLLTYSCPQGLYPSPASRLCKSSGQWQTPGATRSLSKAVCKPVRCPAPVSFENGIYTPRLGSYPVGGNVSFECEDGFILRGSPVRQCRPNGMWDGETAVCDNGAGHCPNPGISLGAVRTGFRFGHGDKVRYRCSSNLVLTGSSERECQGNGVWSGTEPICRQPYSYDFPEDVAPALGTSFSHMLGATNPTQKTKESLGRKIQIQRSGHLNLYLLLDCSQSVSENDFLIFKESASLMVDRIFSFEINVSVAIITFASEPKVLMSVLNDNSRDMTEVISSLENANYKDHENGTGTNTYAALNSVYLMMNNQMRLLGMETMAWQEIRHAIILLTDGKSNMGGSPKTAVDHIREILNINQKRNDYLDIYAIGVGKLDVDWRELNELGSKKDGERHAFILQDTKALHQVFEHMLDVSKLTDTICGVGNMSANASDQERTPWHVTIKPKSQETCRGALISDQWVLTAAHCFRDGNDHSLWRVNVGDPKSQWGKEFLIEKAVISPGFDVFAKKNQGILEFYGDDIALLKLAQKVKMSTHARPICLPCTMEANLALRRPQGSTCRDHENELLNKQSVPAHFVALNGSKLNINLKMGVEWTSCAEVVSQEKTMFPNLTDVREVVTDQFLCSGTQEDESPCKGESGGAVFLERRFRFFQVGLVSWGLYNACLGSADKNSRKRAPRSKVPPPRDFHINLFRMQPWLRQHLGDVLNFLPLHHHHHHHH"}, "[3]": {"biological_target": "T3, human C2 S278A (human, UniProt P06681 21-752)", "T3 sequence": "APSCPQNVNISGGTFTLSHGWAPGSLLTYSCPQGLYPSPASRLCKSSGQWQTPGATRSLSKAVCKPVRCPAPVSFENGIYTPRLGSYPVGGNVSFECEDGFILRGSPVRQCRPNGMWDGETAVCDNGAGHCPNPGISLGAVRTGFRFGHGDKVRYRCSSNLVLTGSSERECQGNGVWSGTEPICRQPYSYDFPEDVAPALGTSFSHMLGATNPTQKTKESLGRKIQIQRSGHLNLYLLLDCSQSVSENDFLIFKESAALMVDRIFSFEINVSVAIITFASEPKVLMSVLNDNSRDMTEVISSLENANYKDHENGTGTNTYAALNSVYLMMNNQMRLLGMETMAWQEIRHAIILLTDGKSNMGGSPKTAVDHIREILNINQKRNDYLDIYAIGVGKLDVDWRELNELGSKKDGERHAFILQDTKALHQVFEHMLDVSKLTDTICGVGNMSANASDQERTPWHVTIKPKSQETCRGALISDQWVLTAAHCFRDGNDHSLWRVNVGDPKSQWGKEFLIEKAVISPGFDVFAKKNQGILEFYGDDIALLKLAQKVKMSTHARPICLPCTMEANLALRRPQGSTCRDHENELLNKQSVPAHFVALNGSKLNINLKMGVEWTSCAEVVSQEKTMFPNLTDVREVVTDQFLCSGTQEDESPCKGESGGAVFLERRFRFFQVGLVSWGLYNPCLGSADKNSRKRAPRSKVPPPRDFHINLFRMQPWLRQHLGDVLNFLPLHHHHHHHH"}, "[4]": {"biological_target": "T4, human C2 L701A (human, UniProt P06681 21-752)", "T4 sequence": "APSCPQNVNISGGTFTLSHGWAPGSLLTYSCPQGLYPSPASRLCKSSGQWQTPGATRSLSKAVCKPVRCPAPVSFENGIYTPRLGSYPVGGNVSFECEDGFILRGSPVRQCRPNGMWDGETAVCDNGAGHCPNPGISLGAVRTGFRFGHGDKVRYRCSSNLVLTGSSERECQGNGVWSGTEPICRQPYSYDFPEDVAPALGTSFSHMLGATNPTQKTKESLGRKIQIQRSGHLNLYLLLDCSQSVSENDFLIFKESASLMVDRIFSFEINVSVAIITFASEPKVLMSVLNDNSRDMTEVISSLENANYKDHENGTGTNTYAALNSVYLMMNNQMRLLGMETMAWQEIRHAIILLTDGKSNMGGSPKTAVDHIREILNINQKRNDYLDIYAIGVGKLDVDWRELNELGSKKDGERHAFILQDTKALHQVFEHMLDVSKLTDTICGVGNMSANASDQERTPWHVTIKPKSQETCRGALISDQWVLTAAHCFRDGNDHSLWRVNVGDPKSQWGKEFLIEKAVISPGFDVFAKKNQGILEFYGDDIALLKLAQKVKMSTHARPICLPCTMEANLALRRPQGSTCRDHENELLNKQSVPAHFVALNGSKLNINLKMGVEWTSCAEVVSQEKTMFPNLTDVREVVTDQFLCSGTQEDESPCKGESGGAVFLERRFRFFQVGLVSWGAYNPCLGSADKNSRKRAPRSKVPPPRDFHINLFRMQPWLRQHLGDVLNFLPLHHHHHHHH"}}}
{"binder": "RF16-226 (antibody, human IgG4 S228P, lambda, pH-dependent anti-C2 antibody from a phage display library; also called WT) heavy: not shown light: SYELTQPPSVSVSPGQTARITCSGDALTSKYVAWYQQKSGLAPLLVIYEDTRRPSGIPAKFSGSSSGSVATLTISGAHGDDEADYYCYSTDASGHQRVFGGGTKLTVLSQPKAAPSVTLFPPSSEELQANKATLVCLISDFYPGAVTVAWKADGSPVKAGVETTKPSKQSNNKYAASSYLSLTPEQWKSHRSYSCQVTHEGSTVEKTVAPTECS", "values": [{"measurement": "Kd", "setting": "[1]", "value": 32.4, "unit": "nM"}, {"measurement": "Kd", "setting": "[2]", "value": 120, "unit": "nM"}, {"measurement": "Kd", "setting": "[3]", "value": 9.4, "unit": "nM"}, {"measurement": "Kd", "setting": "[4]", "value": 165, "unit": "nM"}]}
